Test results from patent US20160146829A1 (University of California, published 2016).
Ends that are not written are not given here. * marks the point of attachment. Biotin = O=C1N[C@H]2[C@H](CS[C@H]2CCCCC(=O)*)N1

What was measured:
[1] = biological target: T1, pCp-1B, biotinylated alemtuzumab binding peptide (not fully specified (bridges); also: incubated with sodium tetrathionate (oxidizing) before binding); assay: peptide ELISA, biotinylated peptide on NeutrAvidin plate, antibody diluted in TBST, anti-human IgG POD detection
T1 construct: Synthetic peptide (Sigma-Genosys); For ELISA it was captured on NeutrAvidin plates; also called Cp-1 (biotinylated peptide)
T1 peptide: ACGSLSPSSCGGK(Biotin)

[2] = biological target: T1, pCp-1B, biotinylated alemtuzumab …; assay: nano-pore optical interferometry (SkiPro); biotinylated peptide on streptavidin chip, whole mAb in solution

B1: alemtuzumab (antibody, V domains shown)
VH: QVQLQESGPGLVRPSQTLSLTCTVSGFTFTDFYMNWVRQPPGRGLEWIGFIRDKAKGYTTEYNPSVKGRVTMLVDTSKNQFSLRLSSVTAADTAVYYCAREGHTAAPFDYWGQGSLVTVSS
VL: DIQMTQSPSSLSASVGDRVTITCKASQNIDKYLNWYQQKPGKAPKLLIYNTNNLQTGVPSRFSGSGSGTDFTFTISSLQPEDIATYYCLQHISRPRTFGQGTKVEIKR
With B1 the “EC50 (read off the curve)” value [1] was ~0.3 µg/mL, the Kd [2] was 163 nM and the koff [2] was 0.00132 s⁻¹. For the same binder, the kon [2] was 8130 M⁻¹ s⁻¹.
